According to patent US20230242640A1 (published 2023):
Positions count from the first letter of the chain named.

T1: peptide human SIRPgamma VKFRKGSPENVEFKSGPGTEMALGAKPSA-6His
T1 peptide: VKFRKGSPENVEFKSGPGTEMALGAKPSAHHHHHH

T2: recombinant hSIRPg-His (Sino Biologicals reference 11828-H08H) (human, UniProt Q9P1W8 29-360)
T2 chain: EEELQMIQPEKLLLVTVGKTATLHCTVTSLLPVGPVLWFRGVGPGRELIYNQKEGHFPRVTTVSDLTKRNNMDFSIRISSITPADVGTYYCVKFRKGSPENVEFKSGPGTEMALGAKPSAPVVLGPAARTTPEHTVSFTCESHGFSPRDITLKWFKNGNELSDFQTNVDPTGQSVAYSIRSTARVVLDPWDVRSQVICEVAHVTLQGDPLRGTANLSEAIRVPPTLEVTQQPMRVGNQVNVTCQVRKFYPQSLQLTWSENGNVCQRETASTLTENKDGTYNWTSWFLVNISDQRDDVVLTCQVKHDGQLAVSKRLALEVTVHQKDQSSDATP

B1: anti-SIRPg antibody A5 (antibody, V domains shown)
VH: EVQLVESGGGVVRPGGSLRLSCAASGFTFDDYGMSWVRQAPGKGLEWVSGINWNGGSTGYADSVKGRFTISRDNAKNSLYLQMNSLRAEDTAVYYCARQMVKLWGQGTLVTVSR
VL: SSELTQDPAVSVALGQTVRITCQGDSLRSYYASWYQQKPGQAPVLVIYGKNNRPSGIPDRFSGSSSGNTASLTITGAQAEDEADYYCNSRDSSGNHVVFGGGTKLTVLR
B2: anti-SIRPg antibody A1 (antibody, V domains shown)
VH: B1 VH with Q99W, M100I, V101A, L103V
VL: B1 VL
B3: anti-SIRPg antibody A8 (antibody, V domains shown)
VH: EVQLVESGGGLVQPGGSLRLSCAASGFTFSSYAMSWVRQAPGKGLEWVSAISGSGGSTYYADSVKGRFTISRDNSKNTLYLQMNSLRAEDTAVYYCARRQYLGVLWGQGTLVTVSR
VL: B1 VL

Biological target: T1, peptide human SIRPgamma …
Assay: ELISA

Row | Binder | EC50
1 | B1 | 0.069 µg/mL
2 | B2 | 0.0505 µg/mL
3 | B3 | 0.0258 µg/mL

Biological target: T2, recombinant hSIRPg-His (Sino …)
Assay: competition ELISA with CD47-Fc

Row | Binder | IC50
4 | B1 | 0.045 µg/mL
5 | B2 | 0.19 µg/mL
6 | B3 | 0.31 µg/mL
